B1: DART-G3 (bispecific antibody, human IgG1, kappa, L234A L235A)
heavy: QVQLVQSGAEVKKPGASVKVSCKASGYTFTNYGMNWVRQAPGQGLEWMGWINTNIGEPTYTEEFKGRVTMTRDTSISTAYMELSRLRSDDTAVYYCARDDGYGNRVSYWGQGTLVTVSSASTKGPSVFPLAPSSKSTSGGTAALGCLVKDYFPEPVTVSWNSGALTSGVHTFPAVLQSSGLYSLSSVVTVPSSSLGTQTYICNVNHKPSNTKVDKRVEPKSCDKTHTCPPCPAPEAAGGPSVFLFPPKPKDTLMISRTPEVTCVVVDVSHEDPEVKFNWYVDGVEVHNAKTKPREEQYNSTYRVVSVLTVLHQDWLNGKEYKCKVSNKALPAPIEKTISKAKGQPREPQVYTLPPSREEMTKNQVSLSCAVKGFYPSDIAVEWESNGQPENNYKTTPPVLDSDGSFFLVSKLTVDKSRWQQGNVFSCSVMHEALHNRYTQKSLSLSPGK
light: DIQMTQSPSSLSASVGDRVTITCKASQDISNYLSWFQQKPGKAPKTLIYRANRLQSGVPSRFSGSGSGTDFTLTISSLQPEDFATYYCLQHDEFPWTFGQGTKLEIKRTVAAPSVFIFPPSDEQLKSGTASVVCLLNNFYPREAKVQWKVDNALQSGNSQESVTEQDSKDSTYSLSSTLTLSKADYEKHKVYACEVTHQGLSSPVTKSFNRGEC
chain 1: QVQLVQSGAEVKKPGASVKVSCKASGYTFTNYGMNWVRQAPGQGLEWMGWINTNIGEPTYTEEFKGRVTMTRDTSISTAYMELSRLRSDDTAVYYCARDDGYGNRVSYWGQGTLVTVSSASTKGPSVFPLAPSSKSTSGGTAALGCLVKDYFPEPVTVSWNSGALTSGVHTFPAVLQSSGLYSLSSVVTVPSSSLGTQTYICNVNHKPSNTKVDKRVEPKSCDKTHTCPPCPAPEAAGGPSVFLFPPKPKDTLMISRTPEVTCVVVDVSHEDPEVKFNWYVDGVEVHNAKTKPREEQYNSTYRVVSVLTVLHQDWLNGKEYKCKVSNKALPAPIEKTISKAKGQPREPQVYTLPPSREEMTKNQVSLWCLVKGFYPSDIAVEWESNGQPENNYKTTPPVLDSDGSFFLYSKLTVDKSRWQQGNVFSCSVMHEALHNHYTQKSLSLSPGGGGSGGGSGGGDIQMTQSPSSLSASVGDRVTITCRPSQDISNYLNWYQQKPDKTVKLLIYYTSRLRSGVPSRFSGSGSGTDFTFTISSLQPEDIATYFCQQGDTLPYTFGQGTKLEIKGGGSGGGGQVQVQLVQSGAEVKKPGASVKVSCKASGYTFTSYWINWVKQAPGQGLEWIGNIYPSDSYTNYNQKFKDKATITADKSTSTAYMELSSLRSEDTAVYYCTRDYGSAYSYSLWGQGTTVTVSSGGCGGGEVAALEKEVAALEKEVAALEKEVAALEK
chain 2: DIQMTQSPSSLSASVGDRVTITCRPSQDISNYLNWYQQKPDKTVKLLIYYTSRLRSGVPSRFSGSGSGTDFTFTISSLQPEDIATYFCQQGDTLPYTFGQGTKLEIKGGGSGGGGQVQLVQSGAEVKKPGASVKVSCKASGYTFTSYWINWVKQAPGQGLEWIGNIYPSDSYTNYNQKFKDKATITADKSTSTAYMELSSLRSEDTAVYYCTRDYGSAYSYSLWGQGTTVTVSSGGCGGGKVAALKEKVAALKEKVAALKEKVAALKE
notes: also called optimized DART-G3
B2: DART-G2 (bispecific antibody, human IgG1, kappa, L234A L235A)
heavy: B1 heavy
light: B1 light
chain 1: B1 chain 1 with Y682M, L684T
chain 2: B1 chain 2 with Y221M, L223T
notes: also called optimized DART-G2
B3: DART-G4 (bispecific antibody, human IgG1, kappa, L234A L235A)
heavy: B1 heavy
light: B1 light
chain 1: B1 chain 1 with A679S, S683N, L684V
chain 2: B1 chain 2 with A218S, S222N, L223V
notes: also called optimized DART-G4

Positions count from the first letter of the chain named.

T1 sequence (Q07011 24-255, change not shown): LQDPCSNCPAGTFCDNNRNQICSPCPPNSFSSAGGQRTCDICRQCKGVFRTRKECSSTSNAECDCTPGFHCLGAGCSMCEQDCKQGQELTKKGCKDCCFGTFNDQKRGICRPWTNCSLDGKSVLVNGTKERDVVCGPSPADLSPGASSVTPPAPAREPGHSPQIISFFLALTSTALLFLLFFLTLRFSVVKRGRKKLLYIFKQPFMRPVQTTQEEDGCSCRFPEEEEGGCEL

One assay has as its target T1, CD137 on the surface of cells (activated human T cells; engineered CHO cells) (human, UniProt Q07011 24-255).
T1 construct: whole, on cells; also called human CD137; cell surface expressed CD137
Briefly: flow cytometry on activated pan T cells (donor D46433, CD8 PE), anti-hFc APC MFI. (In flow cytometry, cells or beads pass a laser one at a time.)
Consider B1, for which the “EC50 (read off the curve)” value was roughly 0.1 nM.

As for B2, the “EC50 (read off the curve)” value is roughly 0.1 nM.

With B3, the “EC50 (read off the curve)” value is roughly 0.08 nM.

In another assay the target is T1, CD137 on the surface of cells …. Kind of assay: flow cytometry on CD137-expressing CHO cells (CHO/137), anti-hFc APC MFI.
Turning to B1, the “EC50 (read off the curve)” value is roughly 0.02 µg/mL.

B2: the half-maximal effective concentration (EC50 (read off the curve)) was roughly 0.02 µg/mL.

As to B3, the concentration giving a half-maximal response (EC50 (read off the curve)) was roughly 0.02 µg/mL.

The next assay deals with T2, HER2/neu on the surface of target cells (N87, JIMT-1, MCF-7, MDA-MB231) (UniProt P04626 23-1255, limits assumed).
T2 construct: whole, on cells
Kind of assay: flow cytometry on JIMT-1 cells, anti-hFc APC MFI.
Take B1: the “EC50 (read off the curve)” value is roughly 0.2 nM.

Consider B2, for which the concentration for a half-maximal effect (EC50 (read off the curve)) was roughly 0.2 nM.

Take B3: the “EC50 (read off the curve)” value was roughly 0.2 nM.

Another assay deals with T2, HER2/neu on the surface of target cells …. Kind of assay: flow cytometry on MCF-7 cells, anti-hFc APC MFI.
B1: the “EC50 (read off the curve)” value was roughly 0.09 nM.

Turning to B2, the “EC50 (read off the curve)” value was roughly 0.09 nM.

Regarding B3, the “EC50 (read off the curve)” value is roughly 0.09 nM.

Another assay shares this target. Briefly: flow cytometry on N87 cells, anti-hFc APC MFI.
Take B1: the “EC50 (read off the curve)” value was roughly 0.5 nM.

B2: the concentration for a half-maximal effect (EC50 (read off the curve)) is roughly 0.5 nM.

Consider B3, for which the “EC50 (read off the curve)” value is roughly 0.5 nM.

The target of the next assay is T1, CD137 on the surface of cells …. Kind of assay: flow cytometry on activated CD8+ T cells (donor D53781, CD8 FITC), anti-hFc APC MFI.
For B1, the “EC50 (read off the curve)” value was roughly 0.02 µg/mL.

As for B2, the concentration giving a half-maximal response (EC50 (read off the curve)) is roughly 0.02 µg/mL.

Turning to B3, the “EC50 (read off the curve)” value was roughly 0.02 µg/mL.

For a further assay, the target named is T3, extracellular portion of human CD137 fused to a histidine-containing peptide (human, UniProt Q07011 24-186).
T3 construct: extracellular domain; also called huCD137; His-tagged soluble human CD137
Kind of assay: SPR (BIACORE); molecule captured on anti-human Fc; huCD137 6.25-100 nM; 1:1 Langmuir. The protocol: (§1) The amino acid sequences of these clones were incorporated into the 5 chain diabody DART-G to yield optimized DART-G molecules (designated as DART-G1, DART-G2; DART-G3, and DART-G4). The binding affinity of DART-G2, DART-G3, and DART-G4 were evaluated via BIAcore (Table 11). For such evaluation, His-tagged soluble human CD137 (huCD137) or cynomolgus monkey CD137 (cynoCD137) (containing an extracellular portion of human or cynomolgus monkey CD137 fused to a histidine-containing peptide) was passed over a surface coated with immobilized antibody. Briefly, each test molecule was captured onto an F(ab)₂ goat-anti-human Fc-coated surface and then incubated in the presence of different concentrations (6.25-100 nM) of huCD137 or cynoCD137. The kinetics of binding were determined via BIACORE® analysis binding (normalized 1:1 Langmuir binding model).
(Surface plasmon resonance follows binding to a sensor surface in real time, without labels.)
Molecule B1 showed a dissociation constant (Kd) of 64 nM, a koff of 0.014 s⁻¹ and a kon of 220000 M⁻¹ s⁻¹.

Molecule B2 displayed a Kd of 60 nM, an off-rate (koff) of 0.021 s⁻¹ and a kon of 350000 M⁻¹ s⁻¹.

On to B3, for which the affinity, expressed as Kd, was 28 nM; the koff was determined as 0.0087 s⁻¹; the kon came out at 310000 M⁻¹ s⁻¹.

In a further assay the target is T4, extracellular portion of cynomolgus monkey CD137 fused to a histidine-containing peptide (cynomolgus monkey, UniProt A9YYE7 24-186).
T4 construct: extracellular domain; also called cynoCD137
T4 sequence: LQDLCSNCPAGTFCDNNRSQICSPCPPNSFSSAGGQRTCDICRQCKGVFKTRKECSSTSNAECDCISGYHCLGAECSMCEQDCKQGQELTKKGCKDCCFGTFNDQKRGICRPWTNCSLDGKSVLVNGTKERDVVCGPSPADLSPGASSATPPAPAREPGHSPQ
Briefly: SPR (BIACORE); molecule captured on anti-human Fc; cynoCD137 6.25-100 nM; column head ×10^-4 applied as printed. The procedure:
as §1
In turn, B1 yielded an off-rate (koff) of 0.018 s⁻¹.

Turning to B2, the koff is 0.025 s⁻¹.

B3 had a dissociation rate constant (koff) of 0.014 s⁻¹.

A further assay deals with T4, extracellular portion of cynomolgus …. Briefly: SPR (BIACORE); molecule captured on anti-human Fc; cynoCD137 6.25-100 nM; 1:1 Langmuir. The procedure: as §1
Molecule B1 showed a Kd of 78 nM and a kon of 230000 M⁻¹ s⁻¹.

B2 registered a dissociation constant Kd of 64 nM and a kon of 390000 M⁻¹ s⁻¹.

The molecule B3 registered a Kd of 40 nM and a kon of 350000 M⁻¹ s⁻¹.

By EC50 (read off the curve) is commonly meant the concentration giving half of the maximal effect. The Kd is the equilibrium constant for the complex coming apart. As a reminder, the koff is a measure of how fast the partners let go of each other. As usually defined, the kon is a measure of how fast the partners come together.

The record behind these values is patent publication US20220406376A1 (MacroGenics, published 2022).
